Target: T1, Rad50-K1181A K1183A (Saccharomyces cerevisiae, UniProt P12753 1-1312, K1181A;K1183A)
T1 sequence: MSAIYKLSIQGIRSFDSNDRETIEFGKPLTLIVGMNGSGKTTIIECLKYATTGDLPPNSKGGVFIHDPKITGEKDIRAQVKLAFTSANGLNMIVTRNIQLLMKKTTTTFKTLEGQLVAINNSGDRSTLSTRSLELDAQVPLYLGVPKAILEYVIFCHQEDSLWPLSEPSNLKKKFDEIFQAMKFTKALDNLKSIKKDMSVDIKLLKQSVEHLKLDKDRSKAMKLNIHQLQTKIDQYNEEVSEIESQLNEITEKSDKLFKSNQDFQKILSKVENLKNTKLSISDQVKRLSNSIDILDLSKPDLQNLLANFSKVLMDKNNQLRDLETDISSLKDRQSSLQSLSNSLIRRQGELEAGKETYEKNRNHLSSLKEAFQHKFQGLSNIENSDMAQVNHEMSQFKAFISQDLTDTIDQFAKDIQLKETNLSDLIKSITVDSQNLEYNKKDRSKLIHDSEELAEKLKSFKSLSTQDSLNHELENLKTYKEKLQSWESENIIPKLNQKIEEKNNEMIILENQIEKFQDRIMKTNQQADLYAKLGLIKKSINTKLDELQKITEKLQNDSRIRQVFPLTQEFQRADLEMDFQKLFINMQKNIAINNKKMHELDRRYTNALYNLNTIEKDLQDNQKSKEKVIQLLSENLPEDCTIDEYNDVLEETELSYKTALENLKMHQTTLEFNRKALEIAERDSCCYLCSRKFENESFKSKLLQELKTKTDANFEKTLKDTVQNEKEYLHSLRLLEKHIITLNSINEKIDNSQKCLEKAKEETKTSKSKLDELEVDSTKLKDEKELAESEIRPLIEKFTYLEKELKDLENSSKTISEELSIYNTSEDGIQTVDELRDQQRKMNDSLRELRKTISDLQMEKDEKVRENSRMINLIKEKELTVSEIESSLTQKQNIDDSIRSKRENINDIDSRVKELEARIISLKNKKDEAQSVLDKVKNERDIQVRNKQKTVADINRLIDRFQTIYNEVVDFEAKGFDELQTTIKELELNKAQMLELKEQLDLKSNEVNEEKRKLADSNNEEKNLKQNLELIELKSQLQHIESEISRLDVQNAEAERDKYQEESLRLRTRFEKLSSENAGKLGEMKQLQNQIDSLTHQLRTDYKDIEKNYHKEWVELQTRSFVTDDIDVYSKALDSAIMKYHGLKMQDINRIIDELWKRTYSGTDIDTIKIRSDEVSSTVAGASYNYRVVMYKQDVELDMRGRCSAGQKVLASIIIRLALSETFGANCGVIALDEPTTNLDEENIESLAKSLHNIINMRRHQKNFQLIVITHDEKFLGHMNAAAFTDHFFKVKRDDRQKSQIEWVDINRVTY
Experiment: EMSA

B1: 83-mer dsDNA (EMSA) (dsDNA)
DNA 1: TTGATAAGAGGTCATTTTTGCGGATGGCTTAGAGCTTAATTGCTGAATCTGGTGCTGTAGCTCAACATGTTTTAAATATGCAA
DNA 2: TTGCATATTTAAAACATGTTGAGCTACAGCACCAGATTCAGCAATTAAGCTCTAAGCCATCCGCAAAAATGACCTCTTATCAA
B1: binds.
